How the values were obtained:
[1] = target: T1, 人PSMA ECD-AFH (可溶性人PSMA ECD，重组二聚体PSMA ECD) (human, UniProt Q04609 44-750); experiment: SPR Biacore T200, scFv-Fc captured by anti-human IgG, dimeric PSMA ECD as analyte
T1 construct: Expressed in HEK-293, IMAC then SEC; the dimer fraction was used; also called TSC033; HuPSMA-AFH

[2] = target: T2, 人CD3ε (TCR/CD3复合物，Jurkat细胞) (human, UniProt P07766 23-207); experiment: flow cytometry on Jurkat cells, domain within anti-TA x anti-CD3ε constructs
T2 construct: whole, on cells; The other chains of the TCR/CD3 complex are present on the cells; also called CD3(+) Jurkat
T2 sequence (P07766 23-207): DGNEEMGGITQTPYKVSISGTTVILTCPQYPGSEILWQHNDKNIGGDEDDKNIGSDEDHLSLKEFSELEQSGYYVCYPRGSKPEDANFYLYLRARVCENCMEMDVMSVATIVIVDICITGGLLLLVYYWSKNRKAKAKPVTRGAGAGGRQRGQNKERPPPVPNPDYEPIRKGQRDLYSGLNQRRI

[3] = target: T1, 人PSMA ECD-AFH (可溶性人PSMA ECD，重组二聚体PSMA …); experiment: SPR Biacore, dimeric PSMA ECD
全长食蟹猴PSMA = target: T3, 全长食蟹猴PSMA (cynomolgus monkey, UniProt Q04609 1-750 (human entry)); experiment: MSD live-cell ELISA on CHOK1SV/cynoPSMA cells
T3 construct: On transfected CHO cells; also called TSC308; cynoPSMA
T3 chain: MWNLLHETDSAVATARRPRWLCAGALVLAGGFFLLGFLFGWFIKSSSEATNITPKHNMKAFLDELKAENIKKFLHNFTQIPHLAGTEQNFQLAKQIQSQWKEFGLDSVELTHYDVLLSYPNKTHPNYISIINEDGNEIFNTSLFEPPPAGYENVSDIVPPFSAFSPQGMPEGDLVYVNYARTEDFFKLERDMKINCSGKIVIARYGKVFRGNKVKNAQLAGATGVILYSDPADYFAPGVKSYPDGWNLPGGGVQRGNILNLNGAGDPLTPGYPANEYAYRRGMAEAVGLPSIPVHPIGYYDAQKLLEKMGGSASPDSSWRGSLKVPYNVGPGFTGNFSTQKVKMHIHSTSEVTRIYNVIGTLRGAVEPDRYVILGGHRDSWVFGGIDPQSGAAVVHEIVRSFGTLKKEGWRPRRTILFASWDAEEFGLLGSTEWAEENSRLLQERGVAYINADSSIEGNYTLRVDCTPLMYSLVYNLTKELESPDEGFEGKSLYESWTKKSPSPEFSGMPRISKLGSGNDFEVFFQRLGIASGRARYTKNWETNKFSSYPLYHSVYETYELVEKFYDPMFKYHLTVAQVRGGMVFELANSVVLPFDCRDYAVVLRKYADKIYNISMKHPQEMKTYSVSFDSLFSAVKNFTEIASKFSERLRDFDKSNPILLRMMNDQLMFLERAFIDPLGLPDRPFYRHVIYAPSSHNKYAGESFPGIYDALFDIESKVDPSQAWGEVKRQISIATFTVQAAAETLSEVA

T1 sequence (Q04609 other isoform, or with tags, fused parts or gaps): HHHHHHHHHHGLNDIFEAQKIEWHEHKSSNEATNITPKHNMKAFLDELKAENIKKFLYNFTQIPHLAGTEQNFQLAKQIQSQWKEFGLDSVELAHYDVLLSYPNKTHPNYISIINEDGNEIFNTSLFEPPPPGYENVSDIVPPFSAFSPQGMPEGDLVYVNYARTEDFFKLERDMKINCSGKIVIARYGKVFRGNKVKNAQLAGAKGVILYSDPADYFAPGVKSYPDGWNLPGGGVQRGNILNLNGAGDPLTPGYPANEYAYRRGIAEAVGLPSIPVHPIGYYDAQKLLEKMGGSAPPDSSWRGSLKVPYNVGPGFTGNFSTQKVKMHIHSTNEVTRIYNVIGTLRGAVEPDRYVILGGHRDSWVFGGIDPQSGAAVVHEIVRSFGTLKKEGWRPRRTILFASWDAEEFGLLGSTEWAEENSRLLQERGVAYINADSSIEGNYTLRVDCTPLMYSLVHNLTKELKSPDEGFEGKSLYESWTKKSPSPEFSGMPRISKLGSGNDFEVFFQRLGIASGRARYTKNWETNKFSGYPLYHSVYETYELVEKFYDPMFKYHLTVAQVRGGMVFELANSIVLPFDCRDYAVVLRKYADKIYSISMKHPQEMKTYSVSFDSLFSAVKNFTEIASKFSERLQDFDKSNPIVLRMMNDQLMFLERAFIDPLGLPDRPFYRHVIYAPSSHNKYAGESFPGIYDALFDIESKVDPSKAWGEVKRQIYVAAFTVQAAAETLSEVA

B1: PSMA01012 (Fc fusion)
VH: QVQLVQSGAEVKKPGASVKVSCKASGYTFTDYYMHWVRQAPGQGLEWMGYFNPYNDYTRYAQKFQGRVTMTRDTSISTAYMELSSLRSDDTAVYYCARSDGYYDAMDYWGQGTTVTVSS
VL: DIQMTQSPSAMSASVGDRVTITCRASKSISKYLAWFQQKPGKVPKLRIHSGSTLQSGVPSRFSGSGSGTEFTLTISSLQPEDFATYYCQQHIEYPWTFGQGTKVEIKR
notes: Monospecific bivalent scFv-Fc, scFv in VL-VH orientation; also called TSC189 (结合结构域); 亲本构建体PSMA01012
B1: binds [1].

B2: CRIS7H16 (scFv, V domains shown)
VH: QVQLVQSGAEVKKPGASVKVSCKASGYTFTRSTMHWVRQAPGQGLEWIGYINPSSAYTNYAQKFQGRVTLTADKSTSTAYMELSSLRSEDTAVYYCASPQVHYDYNGFPYWGQGTLVTVSS
VL: DIQMTQSPSSLSASVGDRVTITCRASSSVSYMNWYQQKPGKAPKRWIYDSSKLASGVPSRFSGSGSGTDFTLTISSLQPEDFATYYCQQWSRNPPTFGQGTKVEIK
notes: also called H16 CD3结合结构域
B2: binds [2].

B3: PSMA01023 (Fc fusion)
chain: DIQMTQSPSTLSASVGDRVTITCRASKSISKYLAWYQQKPGKAPKLLIHSGSSLESGVPSRFSGSGSGTEFTLTISSLQPDDFATYYCQQHIEYPWTFGQGTKVEIKGGGGSGGGGSGGGGSGGGGSQVQLVQSGAEVKKPGASVKVSCKASGYTFTDYYMHWVRQAPGQGLEWMGYFNPYNDYTRYAQKFQGRVTMTRDTSTSTVYMELSSLRSEDTAVYYCARSDGYYDAMDYWGQGTTVTVSSSEPKSSDKTHTCPPCPAPEAAGAPSVFLFPPKPKDTLMISRTPEVTCVVVDVSHEDPEVKFNWYVDGVEVHNAKTKPREEQYNSTYRVVSVLTVLHQDWLNGKEYKCAVSNKALPAPIEKTISKAKGQPREPQVYTLPPSRDELTKNQVSLTCLVKGFYPSDIAVEWESNGQPENNYKTTPPVLDSDGSFFLYSKLTVDKSRWQQGNVFSCSVMHEALHNHYTQKSLSLSPGK
notes: Monospecific bivalent anti-PSMA scFv-Fc, scFv in VL-VH orientation
B3 was tested, and the Kd [3] was 0.04 µM and the binding result (全长食蟹猴PSMA) was “binds”.
